Measurements as given in patent publication US20160082074A1.

What was measured:
calcineurin = experiment: cell-based or functional assay
[1] = biological target: human cyclophilin A (human) (UniProt P62937); experiment: cell-based or functional assay
Sequence of human cyclophilin A (human) (P62937 whole entry): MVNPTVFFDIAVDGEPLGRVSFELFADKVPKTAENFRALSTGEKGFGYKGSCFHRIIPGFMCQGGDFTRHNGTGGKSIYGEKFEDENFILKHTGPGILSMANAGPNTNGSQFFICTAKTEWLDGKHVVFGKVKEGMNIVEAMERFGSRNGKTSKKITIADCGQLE

In vitro inhibition CnA IC50 (calcineurin) | In vitro inhibition human CypA IC50 [nM] (protease-coupled PPIase assay) [1] | Substance
0.05 µM | – | CypA/CsA complex
– | 9.1 nM | cyclosporin A (peptide)
